What was measured:
[1] = molecular target: calmodulin (CaM) cysteine mutant E11C (UniProt P0DP23); assay: FRET or BRET
[2] = molecular target: Alexa Fluor 555-labeled E11C calmodulin mutant (UniProt P0DP23); assay: FRET or BRET
[3] = molecular target: Alexa Fluor 594-modified E11C CaM (UniProt P0DP23); assay: FRET or BRET
[4] = molecular target: calmodulin (CaM) cysteine mutant E11C (UniProt P0DP23); assay: solvatochromic fluorescence
[5] = molecular target: calmodulin (CaM) cysteine mutant M145C (UniProt P0DP23); assay: solvatochromic fluorescence
[6] = molecular target: calmodulin (CaM) cysteine mutant M76C (UniProt P0DP23); assay: solvatochromic fluorescence

increase in the acceptor fluorescence after Ca2+ addition [1] [fold] | FRET fluorescence increase (Ca2+-bound over apo-state) [2] [fold] | FRET fluorescence increase at 611 nm [3] [fold] | increase of the direct fluorescence emission from 4DMN [3] [fold] | 4DMN fluorescence increase at 505 nm (Ca2+-bound complex over apo-state) [4] [fold] | 4DMN fluorescence increase at 505 nm (Ca2+-bound complex over apo-state) [5] [fold] | 4DMN fluorescence increase at 505 nm (Ca2+-bound complex over apo-state) [6] [fold] | Substance
4.9 | – | – | – | – | – | – | 4DMN/Alexa 555-labeled M13 peptide (4DMN at position 8, Alexa Fluor 555 on an N-terminal cysteine)
– | 23 | 5.5 | 114 | 98 | 43 | 180 | 4DMN-labeled M13 peptide (M13, the calmodulin-binding peptide, with the 4DMN amino acid at position 8)

Reference: PMC3776414
